The chains are these.
B1: CD137 #A41 (antibody, human IgG1, V domains shown)
VH: QVQLQESGPGLVKPSETLSLNCTVSGGSISNYYWSWIRQPAGKGLEWIGRIYTSGNTNYNPSLKSRVTMSVDTSKNQFSLKLTSVTAADTAVYYCARDGNWNYADAFDIWGQGTMVTVSS
VL: DIQMTQSPSSVSASVGDRVTITCRASQGISSWLAWFQQIPGKAPKLLIYTASGLQSGVPSRFSGSGSGTDFTLTISSLQPEDFATYYCQQTNSFPFTFGPGTKVDIK
notes: human IgG1 KO (L234A/L235A)/kappa chimeric IgG
B2: CD137 #A4 (antibody, human IgG1, V domains shown)
VH: DVQLQESGPGLVKPSQSLSLTCTVTGYSITSDYVWNWIRQFPGNKLEWMGYISYSGGTRYNPSLKSRISITRDTSENQFFLQLDSVTTEDTATFYCARSGNWDWYFDAWGTGTTVTVSS
VL: DIQMTQTTSSLSASLGDRVTISCRPSQDISNYLDWYQQKPDGTVKLLIYSTSRLPSGVPSRFSGSGSGTDYSLTISNMEQEDIATYFCQQGNTFPPTFGGGTKLEIK
notes: as for B1
B3: CD137 #A12 (antibody, human IgG1, V domains shown)
VH: QVQLKQSGPGLVQPSQSLSITCTVSGFSLTSHGVHWVRQSPGKGLEWLGVIWSGGYTDYNAAFISRLSISTDNSKSHIFFKMNSLQADDTAIYYCARNGASYYYAMDYWGQGTSVTVSS
VL: DIVMTQAAFSNPVTLGISASISCRSSKSLLHSNGITYLYWYLQKPGQSPQLLIYQMSNLASGVPDRFSSSGSGTDFTLRISRVEAEDVGVYYCAQNLELPLTFGAGTKLELK
notes: human IgG1 KO (L234A/L235A)/kappa chimeric IgG; also called CD137 #Al2
B4: CD137 #B3 (antibody, human IgG1, V domains shown)
VH: DVQLVESGGDLVQPGGSRKLSCAASGFTFSSFGMHWVRQAPERGLEWVAYISSGSSTIYYADTVKGRFIISRDNPKNTLFLQMTSLRSEDTAMYYCARDWVDYWGQGTSVTVSS
VL: QIVLTQSPAIMSASPGEKVTITCSASSSVNYIHWFQQKPGTSPKLWIYSTSNLASGVPARFSGRGSGTSYSLTISRMEAEDAATYYCLQGSSYPWTFGGGTKLEIK
notes: as for B1
B5: CD137 #A1 (antibody, human IgG1, V domains shown)
VH: QVQLVQSGAEVKKPGASVKVSCKASGYTLTNYPMHWVRQAPGQRPEWMGWSNAGNGNTKYSQEFQDRVTITRDTSASTAYMELSSLRSEDMAVYYCTREGVTGGFDIWGQGTMVTVSS
VL: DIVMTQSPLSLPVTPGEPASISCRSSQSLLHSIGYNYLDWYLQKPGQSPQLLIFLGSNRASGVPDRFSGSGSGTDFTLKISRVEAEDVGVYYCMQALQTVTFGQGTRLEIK
notes: as for B1
B6: CD137 #B12 (antibody, human IgG1, V domains shown)
VH: QVQLVQSGAEVKKPGASVKVSCKASGYTFTTYPMHWVRQAPGQRLEWMGWSNAGIGNTKYSQEFQDRITISRDTSASTVYMELSSLRSEDMAVYYCAREGVAGGFDIWGQGTMVTVSS
VL: DIVMTQSPLSLPVTPGEPASISCRSSQSLLHSNGYNYLNWYLQKPGQSPQLLIYLGSIRASGVPDRFSGSESGTDFTLKISRVEAEDVGVYYCMQPLQIPYTFGQGTKLEIK
notes: as for B1
B7: CD137 #A44 (antibody, V domains shown)
VH: QVQLVQSGAEVKKPGASVKVSCKASGYTFTNYPIHWVRQAPGQRLEWMGWSNAGNGNTKYSPEFQDRVTITRDTSASTVYMELSSLRSEDMSVYYCAREGVTGAFDIWGQGTMVTVSS
VL: not shown
notes: as for B1
B8: CD137 #A2 (antibody, human IgG1, V domains shown)
VH: QVQLVQSGADVKKPGASVRVSCKASGYTFTSYPIHWVRQAPGHRLEWMGWSNAGIGNAKYSQEFQGRVTITRDTSASTAYMDLSSLTSEDLAVYYCAREGVAGAFDIWGQGTMVTVSA
VL: DIVMTQSPLSLPVTPGEPASISCRSSQNLLHSNGYNYLDWYLHKPGQSPQLLIYLGSIRASGVPDRFSGSESGTDFTLKISRVEAEDVGIYYCMQPLQIPYTFGQGTKLELK
notes: as for B1
B9: CD137 #A45 (antibody, human IgG1, V domains shown)
VH: QVQLVQSGAEVKKPGASVKVSCKASGYIFTNYPMHWVRQAPGQRLEWMGWSNAGIGNTKYSQDFQGRVTITRDTSANTSYMELSSLRSEDMAVYYCAREGVTGAFDYWGQGTLVTVSS
VL: DIVMTQSPLSLPVTPGEPASISCRSSQSLLHSNGFNYLDWYLQKPGQSPQLLIFLGSIRASGVPDRFSGSESGTDFTLKISRVEADDVGIYYCMQPLQIPYTFGQGTKLEIK
notes: as for B1
B10: CD137 #B10 (antibody, human IgG1, V domains shown)
VH: QVQLVQSGAEVKKPGASVKVSCKASGYTFTNYPMHWVRQAPGQRLEWMGWSNAGSGNTKYSQDFQGRVSITRDTSASTAYMELSSLKSEDMAIYYCAREGVAGAFDIWGQGTVVTVSS
VL: DIVMTQSPLSLPVTPGEPASISCRSSQRLLHSNGFNYLGWYLQKPGQSPQLLIYLGSHRASGVPDRFSGSGSGTDFTLKISRVEAEDVGVYYCMQPLQIPYTFGQGTKLEIK
notes: as for B1
B11: CD137 #A30 (antibody, human IgG1, V domains shown)
VH: QVQLQQPGTEFVKPGASVKLSCKASDYTFTSHWMHWVKQRPGQGLEWIGEIDPSDSYTNYIQKFKGKATLTVDKSSSTAYMQLSSLTSEDSAVYYCARGDYYGTRYFDVWGAGTTVIVSS
VL: DIVMTQSPSSLSVSAGEKVTMSCKSGQNLFNSGNQKNYLAWYQQKPGQPPRLLIYGASTRESGVPDRFTGSGSGTDFTLTISSVQAEDLAVYYCQNDQSYPPTFGAGTKLELK
notes: as for B1
B12: CD137 #A46 (antibody, human IgG1, V domains shown)
VH: QVQLAQSGAEVKKPGASVKVSCKASGYTFSSFPMHWVRQAPGQRLEWMGWSNAGIGNTKYSQEFQGRVTITRDTSASTAYMELSSLRSEDMAVYYCAREGLTGAFDYWGQGTLVTVSS
VL: DIVMTQSPLSLPVTPGEPASISCRSSQSLLHSNGYNYLGWHLQKPGQSPQLLIYLGSYRASGVPDRFSGSGSGTDFTLKISRVEAEDVGVYYCMQPLQIPLTFGGGTKVEIK
notes: as for B1
B13: CD137 #A57 (antibody, human IgG1, V domains shown)
VH: QVQLVQSGAEVKKPGASVKVSCKTSGYTFTSYPMHWVRQAPGQRLEWMGWSNAGNGNTKYSQEFQGRVTLTRDTSASTAFMELSSLRSEDMAVYYCAREGLTGAFDYWGQGTLVTVSS
VL: not shown
notes: as for B1
B14: CD137 #B9 (antibody, human IgG1, V domains shown)
VH: QVQLVQSGAEVKKPGASVKVSCKASGYTLTNFPMHWVRQAPGQRLEWMGWTNAGNGNTKYSQELQGRVTMTRDTSASIAYMELSSLRSEDMGVYYCAREGLTGAFDYWGQGTLVTVSS
VL: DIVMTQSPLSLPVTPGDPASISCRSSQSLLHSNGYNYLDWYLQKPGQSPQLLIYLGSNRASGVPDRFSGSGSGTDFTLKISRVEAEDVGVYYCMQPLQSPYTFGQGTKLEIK
notes: as for B1
B15: CD137 #B30 (antibody, human IgG1, V domains shown)
VH: QVQLQQSGPQLIRPGASVKISCKASGYSFTGYWIHWVKQRPGQGLEWIGMIDPSDSETRLNQKFKDKATLTVDKSSTTAYMQLSSPTSEDSAVFYCARYRNYGYDGFAHWGQGTLVTVSA
VL: DIVMTQSPSSLTVTAGEKVTMSCKSSQSLLNSGNEKNYLAWYQQKPGQPPKLLIYWASTRESGVPDRFTGSGSGTDFTLTISSVQTEDLAVYHCQNDYSLPLTFGAGTKLELK
notes: as for B1
B16: CD137 #B31 (antibody, human IgG1, V domains shown)
VH: QVQLQQSGPQLIRPGASVKISCKASGYSFTGYWIHWVKQRPGQGLEWIGMIDPSDSETRLNQKFKDKATLTVDKSSTTAYMQLSSPTSEDSAVFYCARYRNYGYDGFAHWGQGTLVTVSA
VL: DIVMTQSPSSLTVTAGEKVTMSCKSSQSLLNSGNEKNYLAWYQQKPGQPPKLLIYWASTRESGVPDRFTGSGSGTDFTLTISSVQTEDLAVYHCQNDYSLPLTFGAGTKLELK
notes: as for B1

The target in the experiment is T1, Human CD137 on Jurkat cells (human, UniProt Q07011 24-255).
T1 construct: whole, on cells; also called full-length human CD137-expressing Jurkat cell line; NF-kB-Luc2/4-1BB Jurkat
The experiment is described as follows: flow cytometry, Jurkat cells.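 Also: binding of antibody-containing supernatants to NF-kB-Luc2/4-1BB Jurkat cells, detected by flow cytometry with a PE-labelled anti-human IgG-Fc secondary antibody.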 Background: A flow cytometer gives signals particle by particle.
Procedure: Briefly, HTP supernatants containing recombinant IgG1 (KO) antibodies, were assayed by flow cytometry for binding to the NF-kB-Luc2/4-1BB Jurkat cell line. […] The cells were washed x3 with staining buffer. A Goat F(ab′)2 anti-human IgG-Fc PE secondary antibody was added to the cells and the plate was incubated for 30 min at 4° C. The cells were wash ×3 with staining buffer.
For the molecule B1, the binding result is “binds”.

As for B2, the binding result was “binds”.

On to B3, for which the binding result was “binds”.

Regarding B4, the binding result is recorded as “binds”.

Regarding B5, the binding result is recorded as “binds”.

As for B6, the binding result was “binds”.

B7: the binding result is given as “binds”.

With B8, the binding result is given as “binds”.

For the molecule B9, the binding result was “binds”.

For the molecule B10, the binding result is reported as “binds”.

For B11, the binding result is “binds”.

B12: the binding result is on record as “binds”.

Turning to B13, the binding result is “binds”.

For the molecule B14, the binding result was “binds”.

In the case of B15, the binding result is “binds”.

On to B16, for which the binding result was “binds”.
